# From the nanobody polyreactivity screen of Harvey et al. (2022)
# Assay: yeast display, Sf9 membrane polyspecificity reagent, FACS + sequencing; frameworks hold sequencing errors
# Summary of the method: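 After 36–48 hours of galactose induction, yeast (Saccharomyces cerevisiae BJ5465) displaying a synthetic nanobody library were stained at 4 °C for 1 hour with 10% biotinylated, detergent-solubilized Sf9 membrane reagent. Streptavidin microbeads enriched the stained cells before FACS sorting into low and high (top ~1%) gates on anti-HA and streptavidin fluorescence. Each clone's polyreactivity label reflects its gate of origin.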
row,Sequence,polyreactivity (PSR sort gate)
1,QVQLVESGGGLVQAGGSLRLSCAASGSIFRSYAMGWYRQAPGKERELVASISRRGGSTYYADSVKGRFTISRDNAKNTVYLQMNSLKPEDTAVYYCAVESGYTRSSDYWGQGTQVTVSS,low polyreactivity
2,QVQLVESGGGLVQAGGSLRLSSAASGSTSDNAMGWYRQAPGKEMEFVAAITSSGGSTTYADSVKGRFTISRDNAKNTVYLQMNSLKPEDTAVYYCNAGRVYYSNGYDYWGQGTQVTVSS,low polyreactivity
3,QVQHVESGGGLVQAGGSLRLSCAASGSIFYQNAMGWYRQAPGKERELVAAISSAGSTYYADSVKGRFTISRDNAKNTVYLQMNSLKPEDTAVYYCARRSSGELGYHIYDYWGQGTQVTVSS,low polyreactivity
4,QVQLVESGGGLVQAGGSLRLSCAASGYNFENNVMGWYRQAPGKERELVAVISWNGGRTYYADSVKGRFTISRDNAKNTVYLQMNSLKPEDTAVYYCNDQGYFWSESIVYDYWGQGTQVTVSS,low polyreactivity
5,QVQVVESGGGLVQAGGSLLLICAASGRTFWPNAMGWYRAAPGKERELVAAINWGGGSTYYADSVKVRFTISRDNAKNAVYLQKNSLKPEDTAVYYCAKSLVPWWYKVEYDYWGQGTQVTVSS,low polyreactivity
6,QVQLVESGGGLVQAGGSLRLSCAASGSIFSSNVMGWYRQAPGKERELVAAITRRGSTTYYADSVKGRFTISRDNAKNTVYLQMNSLKPEDTAVYYCATKAKYGRQYLMDYWGQGTQVTVSS,high polyreactivity
7,QVQLVESGGGLVQAGGSLRLSCAASGSNFYPYAMGWYRQAPGKEREFVAAITRSGGSTSYADSVKGRFTISRDNAKNTVYLQMNSLKPVDTAVDYCAAGYWYPDYDGFDYWGQGTQVTGSS,low polyreactivity
8,QVQLVESGGGLVQAGGSLRLSCAASGYTFVYYAMGWYRQAPGKERELVAAITGNSGSTYADSVKGRFTISRDNAKNTVYLQMNSLNPEDTAVYYCAADQTGQDWYYVEFDYWGQGTQVTVSS,low polyreactivity
9,QVQLVESGGGLVQAGGSLRLSCAASGRTFYYNAMGWYRQAPGKERELVAAISSGDSTYYADSVKGRFTISRDNAKNTVYLQMNSLKPEDTAVYYCNKYVAYDYWGQGTQVTVSS,low polyreactivity
10,QVQLVESGGGLVQAGGSLRLSCAASGRIFGVNAMGLYRQAPGKERELVAVISSGGSTYYADSVKGRFTISRDNAKNTVYLQMNSLKPEDTAVYYCNAVVGRWFPYNLSDYWGQGTQVTVSS,low polyreactivity
11,QVQLVYSGGGLVKAGGTLRLSCAASGSTFTPNAMGWYRQAPGKERELVAAINWSDSSTYYADSVKGRFTISRDNAKNTVYLQMNSLIPEDTAVYYCAAAAQYGQLQVPVYYWGEGTQVTVSS,low polyreactivity
12,QVQLVESGGGLVQAGGSLRLSCAASGFIINGNDMGWYRQAPGKERELVAAISSSGGSTYYADSVKGRFTISRDNAKNTVYLQMNSRTPEDSAVYYCARRGKQVSGRYYYWGQGTQVSVSS,high polyreactivity
13,QVQLVESGGGLVQAGGSLRLSCAASGYTFPLYALGWYRQAPGKERELVADINIGGASTYYADSVKGRFTISRDNAKNTVYLQMNSLKPEDTAVYYCAKEYYDGFFPTFDYDYWGQVTQVTVSS,low polyreactivity
14,QVQLVESGGGLVQAGGSLRLSCAASGFIFASNAMGWYRQAPGKERELVAAINSSGGSTYYADSVKGRFTISRDNAKNTVYLQMNSLKPEDTAVYYCAADVIGDLRWYRDEYWGHGTQVTVSS,low polyreactivity
15,QVQLVESGGGLVQAGGSLRLSCAASGFILRKYAMGWYRQAPGKERELVAAINGRGGTYYADSVKGRFTISRDNAKNTVYLQMNSLKPEDTAVYYCAAVEWYGYYTYTIDAYDYWGQGTQVTVSS,high polyreactivity
16,QVQLVESGGGLVQAGGSLRLSCAASGIIFNWYAMGWYRQAPGKERELVAGISTSGGSTYYADSVKGRFTISRDNAKNTVYLQMNSLKPEDTAVYYCAAGRRGAWQYGYYYWGQGTQVTVSS,high polyreactivity
17,QVQLVESGGGLDQAGGSLRLSCAASGFTFPWYPMGWYRQAPGKEREMVAAISTGGSTDYADSVKGRFTISRDNAKNTVYLKMNILKPEDTAVYYCNAGYWVRKYYHGGYWGQGTQVTLSS,high polyreactivity
18,QVQLVESGGGLVQAGGSLRLSCAASGSIFPDNVMGWYRQATGKERELVAAISRTGGSTYYADSVKGRFTISRDNAKNTVYLQMNSLKPEDTAVYYCNAKYRVPYAVGGDYGYWGQGTQVTVSS,high polyreactivity
19,QVQLVESGGGLVQAGGSLRLSCAASGRIFILNTMGWYRQAPGKERELVAGISYSGSTYYADSVKGRFTISRDNAKNTVYSQMNSLKPVDTAVYYCAADYDAAWYNDGYYYWGQGTQVTVSS,low polyreactivity
20,QVQLVESGGGLVQAGGSLRLSCASSGSIFGSNAMGWYRQAPVKERELVAAITWSDGSTYYADSVKGRFTISRDNAKNTVYLQMNSLKPEDTAVYYCAVVWRGGYRWPYEYWGQGTQVTVSS,low polyreactivity

row,Sequence,polyreactivity (PSR sort gate)
1,QVQHVESGGGLVQAGGSLRLSCAASGRIIRGNVMGWYRQAPGKERELVATITSSARTYYADSVKGRFTISRDNAKNTVYLQMNSLKPEDTAVYYCANKQPRYRLRMNYWGQGTQVTVSS,high polyreactivity
2,QVQLVESGGGLVQAGGSLRLSCAASGSIFAHNAMGWSRQAPGKESEMVAAISSGGSTNYADSVKGRFTISRDNAKNTVYLQMNSLKPEDTAVDYCAKSIDGWYWRRRRYDYWGQGTQVTVSS,low polyreactivity
3,QVQLVESGGGLVQAGGSLRLSCAASGRTFYRNAMGWYRQAPGKERELVAAIRTRTGSTYYADSVKGRFTISRDNAKNTVYLQRNSLKPEDTAVYYCNASPYVNGRYGSWGQGTQVTVSS,high polyreactivity
4,QVQLVESGGGLVQAGGSLRLSCAASGSIFLAYLKGWYRQAPGKERELVAAISYRGVSTYYADSVKGRFTISRDNAKNTVYLQMTRLNPEDTAVYYFAAEHLWGAVFLYVRSTGLDYWGQGTQVTVSS,low polyreactivity
5,QVQLVESGGGLVQAGGSLRLSCAASGRIIDRNAMGWYRQAPGKERELFAAISSSGSTNYADSVKGRFTISRDNAKNTVYLQMNSLKPEDTAVYYCAARWRYVLAAGTRPVSFDYWGQGTQVTVSS,low polyreactivity
6,QVQLVESGGGLVQAGGSLRLSCAASGFIFDYYAMGWYRQAPGKERELVAAISRGGSTYYADSVKGRFTISRDNAKNTVYLQMKSLKPEDTAVYYCKAMSYHFWEFDYWGQGTQVTVSS,high polyreactivity
7,QVQLVESWGGLVQAGGSLRLSCAASGSTFRPYAMGWYRQAPGKERELVAAFRSGRTSYADSVKGRFTISRDNAKNTVYLQMNSLKPEDTAVYYCAKASRGGYYWGQGTQVTVSS,high polyreactivity
8,QVQLVESGGGLVQAGGSLRLSCAASGIFVVYAMGWYRQAPGKERELVAAISSGVSTTYADSVKGRFTISRDNAKNTVYLQMNSLKPEDTAVYYCNTLWGHQYIVPYRTREFYYWGQGTQVTVSS,low polyreactivity
9,HVQLQESGGGLVQAGGSLRLSCAASGSNFRWSPMGWYRLAPGKEREFVAGINRGGITNYADSVKGRFTSSRDNAKNTVYLQMNSLKPEDTALYYCAAIAYPDLPTYFDYDSDYFYRGQGTQVTVSS,low polyreactivity
10,QVQLVESGGGLVQAGGSLRISCAASGFTFRSYSMGWYRQAPGKERELVAAITSTGGRTYYADSVKGRFTISRDNAKNTVYLQMNILNPEDTAVYYWAAGRKHFGPVHFGYWGQGTQVTVSW,high polyreactivity
11,QVQLVDSGGGLVQAGGSLRLSCAASGSIFRGYAMGWYRQAPGKERELVAAIRRRAGTTYYADSVKARFTISRDNAKNTVYLQMNSLKPEDTAVYYCAVERYHSGDDYLGQGTQVTVSS,high polyreactivity
12,QVQLVESGGGLVQAGGSLRLSCAASGFTFGDYAMGWYRQAPGIERELVAAIRSGGSTNYADSVKGRFTISRDNAKNTVYLQMNSLNPEDTAVYYCAAEWPHGQGAWSFFCRDSWGQGTQVTVSS,low polyreactivity
13,QVQLVDSGGGLVQAGGSLRLSCAASGRIFYQYAMGWYRQAPGKERELVAGISKRGGSTYYADSVKGRFTISRDNAKNTVYLQMNSLKPEDTAVYYCARGGYPGSAEYDYWGQATQVTVSS,high polyreactivity
14,QVQLVESGGGLVQAGGSLRLSCAASGSTFDPYAMGCYRQAAGKEREFVAYIDSSVGSTFYADSVKGRFTISRDNAKNTVYLQMNSLKPEDTAVYYCAAASRVAKGRWRLYDYWGQGTQVTVSS,high polyreactivity
15,QVQLVESGGGLVQARGSLRLSCAASGYIINQYTKGWYRQAPGKERELVADISSGGSTKYADSVKGRFTISRDNGKNTVSLQMNSLKPEDTAVYYCNGEYDSGSPTAYDWEYDYWVQGTQVTVSS,high polyreactivity
16,QVQLVDSGGGLVQAGGSLRLSCAASGRTFDNYAMGWYRQAPGKERELVAAISSSGGRTYYADSVKGRFTISRDNAKNTVYLQMNSLKPEDTAVYYCAAVWPVYRTHPGMDYWGHGTQVTVSS,high polyreactivity
17,QVQLVESGGGLVQAGGSLRLSCAASGSIFYVYAMGWYRQAPGKERELVAAINTSGGSTFYADSVKGRFTISRDNAKNTVYLQMNSLKPEDTAVYYCAAERFRYRSTDTMGYWGQGTQVTVSS,low polyreactivity
18,QVQLVESGGGLVQAGGTLRLSCAATGSTFPYNAMGWYRQAPGKERELVAAINSAGGTNYADSVKGRFTISRDNAKNTVYLQMNSLKPEDTAVYYCAADGSGYYDWYYYWGQGTQVTVSS,low polyreactivity
19,QVQLVESGGGLVQAGGSLRLSCAASGRIFYGYARGWYRQAPGKDRELVAAIRWYGGNTYYADSVKGRFTISRDNAKNTVYLQMNSLKPEDTAVYYCNARTEYASSRYYYWGQGTQVTVSS,high polyreactivity
20,QVQLVESGGGLVQAGGSLRLSCADSGRIFGRYAMGWYRQAPGKERDLVAAIRSGGSTYYADSVKGRFTISRDNAKNSVYLQMNSLKPEDTAVYYCAADWGPFRLGYGYYYWGQGTQVTVSS,high polyreactivity
